# Reference: patent US12227762B2, “Spheroid culture method for neural stem cell” (Daegu Gyeongbuk Institute of Science and Technology, priority 2019, dated 2025)
# B1: TGPG[VGRGD(VGVPG)6]20WPC (protein)
# chain: TGPGVGRGDVGVPGVGVPGVGVPGVGVPGVGVPGVGVPGVGRGDVGVPGVGVPGVGVPGVGVPGVGVPGVGVPGVGRGDVGVPGVGVPGVGVPGVGVPGVGVPGVGVPGVGRGDVGVPGVGVPGVGVPGVGVPGVGVPGVGVPGVGRGDVGVPGVGVPGVGVPGVGVPGVGVPGVGVPGVGRGDVGVPGVGVPGVGVPGVGVPGVGVPGVGVPGVGRGDVGVPGVGVPGVGVPGVGVPGVGVPGVGVPGVGRGDVGVPGVGVPGVGVPGVGVPGVGVPGVGVPGVGRGDVGVPGVGVPGVGVPGVGVPGVGVPGVGVPGVGRGDVGVPGVGVPGVGVPGVGVPGVGVPGVGVPGVGRGDVGVPGVGVPGVGVPGVGVPGVGVPGVGVPGVGRGDVGVPGVGVPGVGVPGVGVPGVGVPGVGVPGVGRGDVGVPGVGVPGVGVPGVGVPGVGVPGVGVPGVGRGDVGVPGVGVPGVGVPGVGVPGVGVPGVGVPGVGRGDVGVPGVGVPGVGVPGVGVPGVGVPGVGVPGVGRGDVGVPGVGVPGVGVPGVGVPGVGVPGVGVPGVGRGDVGVPGVGVPGVGVPGVGVPGVGVPGVGVPGVGRGDVGVPGVGVPGVGVPGVGVPGVGVPGVGVPGVGRGDVGVPGVGVPGVGVPGVGVPGVGVPGVGVPGAAAVGRGDAVGVPGVGVPGVGVPGVGVPGVGVPGVGVPGAAWPC
# modifications: TGPG[VGRGD(VGVPG)6]20WPC
# notes: recombinant elastin-derived protein with VGVPG pentapeptide and RGD integrin receptor ligand, used as culture vessel coating
# Key:
# [1] = tested on: ORN differentiated from spheroid cultured progenitor cells; test: Calcium imaging assay of ORNs under odorant stimulation; format: cell-based, rat; conditions: for total calcium concentration stimulated by odor: odorant mixture
# Procedure: To facilitate comparison with in vivo ORNs, the physiological properties of ORNs were validated using calcium imaging assays. The activity of the spheroid-cultured ORN progenitor cells was evaluated by transferring them to the laminin-coated plates, and measuring the change in fluorescence intensity by stimulating ORN activity with a mixture of odorant. In addition, the total-calcium concentration and response rate stimulated by odor were analyzed based on the results of calcium imaging.
# Specifically, before performing the calcium imaging assay, the coverslip substrate was combined with a magnetic chamber (Live Cell instrument, Seoul, Korea), and the medium was replaced with KREBS Ringer's buffer containing 115 mM NaCl, 5.9 mM KCl, 2.5 mM CaCl2·2H2O, 1.2 mM MgCl2, 1.2 mM NaH2PO4, 10 mM HEPES sodium salt, and 10 mM D-glucose, and it was washed with PBS. Then, the cells were stained with fluo3-AM (life technologies, Waltham, USA). Fluorescence images of calcium markers were monitored using a confocal microscope. To stimulate the ORN, three odorants of 100 µM isovaleric acid (IVA), 2-isobutyl-3-methoxypyrazine (IBMP), and citralva, which are reported to activate the major signaling pathways of the ORN, and 100 µM of their mixture were applied to the magnetic chamber using a tubing connected to a syringe. The intracellular calcium concentration was calculated from the background corrected fluorescence ratio at 506/526 nm using a two-point calibration scheme and the equation [Ca]i=Kd(F0/Fs)(R−Rmin)/(Rmax−R).
# Response rates were calculated as a ratio of the number of activated cell populations to the total number of cell populations in the confocal microscopy software.
# Next, to determine the physiological properties of ORNs under single […] stimulation, the changes in intracellular calcium levels of ORNs and the changes in fluorescence intensity in cells a, b and c according to […] stimulation were monitored using 100 μM IBMP, 100 μM IVA, and 100 μM citralva.
# rat ORN progenitor cells = test: Spheroid culture of ORN progenitor cells on REP-coated or laminin-coated plates (spheroid formation, diameter); format: cell-based
# Procedure: For a comparison between the culture in a vessel coated with a recombinant protein (REP, TGPG[VGRGD(VGPVPG)6]20WPC) and culture in a vessel coated with laminin in whether neural stem cells are cultured into spheroids, the rat ORN progenitor cells primary cultured in Example 1-1 above were plated on REP-coated or laminin-coated cell culture plates.
# Specifically, before plating the isolated ORN progenitor cells, 96-well plates (Thermo Scientific, Waltham, USA) were coated with 100 μl of 3 μM REP diluted with PBS, and they were cultured in the humidified 37° C. culture incubator containing 5% CO2 for 1 hour. The REP was prepared by the previously described method (Jeon W B, Park B H, Wei J, Park R W (2011) J Biomed Mater Res A 97 (2): 152-7). After culturing for 1 hour in the humidified incubator, the REP solution was aspirated, and 1×10^6 cells/ml of the isolated ORN progenitor cell suspension was placed and stored in the humidified incubator. MEM medium (Welgene, Gyeongsan, Republic of Korea) containing fresh 0.5% FBS (GE Healthcare lifesciences, Brussel, Belgium), 0.5% penicillin streptomycin (Thermo Fisher, Waltham, USA), kanamycin (SIGMA), and gentamicin (SIGMA) was replaced every 24 hours.
# Next, in order to check the optimal conditions for spheroid formation, the diameter and shape of the spheroids were observed according to the seeding populations and the concentration of REP by measuring the diameter of the formed spheroids.
# [2] = tested on: spheroid ORN progenitor cells; test: qPCR of ORN developmental markers after differentiation of spheroid ORN progenitor cells on laminin-coated plate; format: cell-based, rat
# Procedure: Spheroid ORN progenitor cells were differentiated and their developmental characteristics were monitored using qPCR and ICC.
# Next, in order to analyze the differentiation of spheroid ORN progenitor cells in-depth, the transcriptional levels of ORN developmental markers such as ac3, omp, map2 and ncam, were analyzed by qPCR. Adenyl cyclase III (AC3), an important protein in the ORN, plays an important role in the olfactory signaling cascade. Olfactory marker protein (OMP) is also a protein found in fully matured ORNs. Microtubule associated protein 2 (MAP2) and NSE are expressed in differentiated neurons. Therefore, these markers were used as neuronal maturation markers. Neural cell adhesion molecule (NCAM) was used as a neural cell marker.
# [3] = Surface properties of coated coverslips by AFM and SEM; format: physicochemical
# Procedure: In order to determine effects of the REP on spheroid formation, surface properties of REP-coated coverslips were observed using atomic force microscopy (AFM) and scanning electronic microscopy (SEM).
# Specifically, for AFM and SEM image observation, glass coverslips were coated with 3 μM REP and 25 μg/ml laminin. To coat the coverslip with REP, 3 μM REP solution was poured onto the coverslip and incubated at 37° C. for 1 hour. Thereafter, the coverslip was washed three times with warmed autoclaved distilled water at 37° C. and dried in a hood. To prepare a laminin-coated coverslip, 25 μg/ml laminin was diluted with autoclaved distilled water and poured over the coverslip and the coverslip was stored at 37° C. overnight. Thereafter, the coverslip was washed three times with pressurized distilled water and dried with a critical point dryer (EM CPD 300; Leica, Wetzlar, Germany). AFM (XE-150; Park Systems, Suwon, Republic of Korea) was performed in non-contact mode with a scanning speed of 0.5 Hz. Before SEM observation, the coverslip was coated with osmium (Osmium plasma coater, Vacuum Devices Inc., Mito, Japan), and SEM was performed at a chamber pressure of […].
# [4] = tested on: spheroid ORN progenitor cells; test: Calcein assay of cell viability of spheroid ORN progenitor cells; format: cell-based, rat; conditions: plate coated with 3 μM REP
# Procedure: Since it is essential for neural stem cells to maintain cell viability while cultured into spheroids, a calcein assay was performed to evaluate the viability of ORN progenitor cells cultured into spheroids according to the cultivation time.
# Specifically, calcein assay reagent (calcein red-orange, AM; Invitrogen, Carlsbad, USA) is used to evaluate cell viability. Spheroid ORN progenitor cells were washed three times with Dulbecco's phosphate-buffered saline (DPBS; Gibco® by Life Technologies™, Waltham, USA), treated with 3 μM calcein-AM solution, and cultivated at 37° C. for 30 minutes. Cell viability in each well was quantified by measuring optical density at 517 nm with a fluorescence reader (Gemini EM; Molecular Devices, San Jose, USA). The total OD517mm value was normalized to the value measured in spheroid ORN progenitor cells on the first day, and the decrease in fluorescence intensity indicates decrease in viability according to environmental conditions and cell loss according to changes of culture media.
# [5] = tested on: ORN differentiated from cryopreserved spheroid progenitor cells; test: Cryopreservation, thawing and differentiation of spheroid ORN progenitor cells, calcium imaging; format: cell-based, rat; conditions: 5 day spheroids cryopreserved 35 days, thawed on laminin
# Source text: Since the neural stem cells cultured into spheroids need to be stably preserved for a long period of time for efficient use, in order to determine whether or not the cell storage period is extended through cryopreservation, spheroid-cultured ORN progenitor cells were cryopreserved for 35 days and thawed to test their physiological properties.
# [6] = tested on: spheroid ORN progenitor cells; test: qRT-PCR of stem cell markers in spheroid ORN progenitor cells; format: cell-based, rat; conditions: REP-coated plates
# Procedure: In order to evaluate whether the spheroid-cultured ORN progenitor cells maintain a stemness, mRNA levels of stem cell markers were analyzed by quantitative real-time polymerase chain reaction (qRT-PCR). SOX2, Ki67, and nestin were used as specific marker genes for neural stem cells.
# Specifically, total RNA was obtained from spheroid ORN progenitors using Trizol (Trizol® Reagent; Life technologies, Waltham, USA), and cDNA was synthesized by reverse transcription. qRT-PCR was performed under conditions of 40-45 repetitions at 95° C. for 30 sec, at 60° C. for 30 sec, and at 72° C. for 30 sec using a SYBR Green PCR Master Mix Kit (QuantiTect® SYBR® Green PCR Kit; QIAGEN, Hilden, Germany) on a Rotor-Gene Q (QIAGEN, Hilden, Germany). Primers of the sequences shown in Table 1 were purchased from GenoTeck (Daejeon, Korea) and Bionics (Daejeon, Korea). The housekeeping gene cyclophilin A was used as an internal standard.
# [7] = day 3 spheroids, differentiated 72 hours on laminin-coated plate
molecule,measurement,setting,value
"CC(C)CC(=O)O [IVA, isovaleric acid, reference compound]",activation of ORN cell a (intracellular calcium fluorescence),"[1]; single odorant, 100 μM",activated
same,activation of ORN cell b (intracellular calcium fluorescence),"[1]; single odorant, 100 μM",activated
same,activation of ORN cell c (intracellular calcium fluorescence),"[1]; single odorant, 100 μM",activated
"CC(C)=CCCC(C)=CC#N [citralva, reference compound]",activation of ORN cell a (intracellular calcium fluorescence),"[1]; single odorant, 100 μM",activated
same,activation of ORN cell c (intracellular calcium fluorescence),"[1]; single odorant, 100 μM",activated
laminin [reference compound],culture outcome on coated plate,rat ORN progenitor cells; plate coated with laminin,neurites outgrowth occurred and the cells were differentiated without spheroid culture
same,expression level of nsetin,"[2]; laminin group, days 3, 5 and 10",about 0.1 fold
"COc1nccnc1CC(C)C [IBMP, 2-isobutyl-3-methoxypyrazine, reference compound]",activation of ORN cell a (intracellular calcium fluorescence),"[1]; single odorant, 100 μM",activated
B1,height and roughness relative to laminin-coated surface,[3]; 3 μM REP vs 25 μg/ml laminin,23.8 times
same,roughness (AFM),[3]; coverslip coated with 3 μM REP,148.3±15.9 nm
same,fluorescence intensity (cell viability) normalized to first day,[4]; 3rd day,1.05±0.03 times
same,fluorescence intensity (cell viability) normalized to first day,[4]; 10th day,0.087±0.01 times
same,spheroid diameter,rat ORN progenitor cells; 1 μM REP coating,approximately 20 μm
same,spheroid morphology,rat ORN progenitor cells; 1 μM REP coating,unstable spheroid morphology and cell aggregation
same,mean diameter of spheroids,"rat ORN progenitor cells; 1 μM REP coating, 24 hours after cell inoculation",24.2±0.7 μm
same,mean diameter of spheroids,"rat ORN progenitor cells; 3 μM REP coating, 3rd day",77.5±3.3 μm
same,mean diameter of spheroids,"rat ORN progenitor cells; 3 μM REP coating, 24 hours after cell inoculation",62.6±2.2 μm
same,mean diameter of spheroids,"rat ORN progenitor cells; 5 μM REP coating, 5th day",69.4±3.6 μm
same,mean diameter of spheroids,"rat ORN progenitor cells; 5 μM REP coating, 24 hours after cell inoculation",56.2±2.8 μm
same,time for ORN progenitor cells to aggregate to form spheroids,rat ORN progenitor cells; plate coated with REP,≤ 24 h
same,"response rate stimulated by odor, compared to day 5",[5],72.3%
same,"total-calcium concentration stimulated by odor, compared to day 5",[5],72.5%
same,normalized relative mRNA level of Ki67,[6]; day 3,8.6±0.8 fold
same,normalized relative mRNA level of SOX2,[6]; day 3,8.4±0.8 fold
same,normalized relative mRNA level of nestin,[6]; day 3,11.7±1.1 fold
same,NSE expression,"[6]; days 3, 5 and 10",approximately 0.1 fold
same,expression level of ac3,[2]; [7],6.3±0.7 fold
same,expression level of map2,[2]; [7],8.7±0.5 fold
same,expression level of nse,[2]; [7],9.1±0.8 fold
same,expression level of omp,[2]; [7],6.3±0.7 fold
same,total calcium concentration stimulated by odor,[1]; ORNs spheroid cultured for 3 days,195.7 ± 24.0 nM
same,total calcium concentration stimulated by odor,[1]; ORNs spheroid cultured for 5 days,205.3 ± 24.9 nM
same,total calcium concentration stimulated by odor,[1]; ORNs spheroid cultured for 10 days,205.4 ± 22.3 nM
same,response rate (activated cells / total cells),[1]; cultivation time 3 days,29.9±2.5%
same,response rate (activated cells / total cells),[1]; cultivation time 5 days,27.6±3.0%
same,response rate (activated cells / total cells),[1]; cultivation time 10 days,28.1±4.2%
